Assay [1] has as its target T1, isolated human C3b (ih-C3b) (human, UniProt P01024 749-1663; P01024 23-667, limits assumed, biotin on amino groups (Biotin-X-NHS) in flow cytometry; unlabelled in ELISA).
T1 construct: Multi-chain fragment
Nature of the assay: flow cytometry, CSP on transduced Bw cells (FIG. 5a). As for the experimental part:
(§1) FIG. 5. Flow cytometric analysis of the interaction of C4d, C3d, C4b, C3b and iC3b and human MHC class I tetramers with Bw cells transduced to express a ILT1 transcript variants 1 and 2 (ILT1v1 and ILT1v2), ILT3 and ILT7, b previously established complement receptors CD21, CD46 and CRIg, and c PIR-A transcript variant 1 (PIR-Avl), murine ortholog of ILT1. a-c left panels: Expression of transduced receptors was assessed using specific antibodies (grey histograms); open histograms represent reactivity of these antibodies with control Bw cells. d Plate-bound CSP were probed with a recombinant protein representing the human CD35 extracellular domain (rh-sCD35) via ELISA. BSA was used as a plate-bound ligand control; white control bars represent no rh-sCD35 added to the assay.
(§2) Flow cytometric analyses were performed via a FACSCalibur flow cytometrer (BD Biosciences, Franklin Lakes, N.J.) using 60,000 cells per sample resuspended in FACS-buffer. […] For fluorescence-activated cell sorting (FACS), Bw cells expressing a retroviral cDNA expression library generated from moDC¹⁶ were incubated with biotinylated rh-C4Ad or rh-C4Bd (20m/mL each) in FACS-buffer for 30 minutes on ice followed by two washing steps and subsequent detection of bound biotinylated C4d molecules through incubation with SA-PE. […]
Background: A flow cytometer gives signals particle by particle.

Assay [2] has as its target T2, isolated human iC3b (ih-iC3b) (human, UniProt P01024 23-667; P01024 749-1303; P01024 1321-1663, limits assumed, biotin on amino groups (Biotin-X-NHS) in flow cytometry; unlabelled in ELISA).
T2 construct: Multi-chain fragment
The description is as above. As for the experimental part: as §1, §2

For assay [3], the target named is T3, immunoglobulin-like transcript 4 (ILT4) (human, UniProt Q8N423 22-597).
T3 construct: Expressed on Bw5147 cells from a 2 kb retroviral insert; In the functional assays it is the native receptor on human monocytes; also called CD85d; LILRB2
T3 sequence (Q8N423 other isoform, or with tags, fused parts or gaps limits assumed): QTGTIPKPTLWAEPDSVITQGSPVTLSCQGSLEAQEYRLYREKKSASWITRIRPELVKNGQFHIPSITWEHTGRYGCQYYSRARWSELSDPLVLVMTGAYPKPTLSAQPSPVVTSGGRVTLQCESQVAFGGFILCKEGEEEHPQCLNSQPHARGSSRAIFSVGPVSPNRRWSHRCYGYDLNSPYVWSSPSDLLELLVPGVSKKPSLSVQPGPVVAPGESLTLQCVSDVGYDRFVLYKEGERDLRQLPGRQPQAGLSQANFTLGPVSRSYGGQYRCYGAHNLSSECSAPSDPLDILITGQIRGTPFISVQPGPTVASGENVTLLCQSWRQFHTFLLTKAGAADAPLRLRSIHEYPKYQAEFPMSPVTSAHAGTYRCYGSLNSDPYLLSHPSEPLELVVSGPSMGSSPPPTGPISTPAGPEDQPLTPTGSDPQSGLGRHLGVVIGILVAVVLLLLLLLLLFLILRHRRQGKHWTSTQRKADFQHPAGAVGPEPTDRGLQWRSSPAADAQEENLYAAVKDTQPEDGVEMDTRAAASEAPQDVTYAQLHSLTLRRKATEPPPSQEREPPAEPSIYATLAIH
Nature of the assay: flow cytometry: rh-C4d (C4Ad per the FIG. 3a legend) titrated on Bw-ILT4 cells, detected with C4d-mMAb, Langmuir 1:1 isotherm; stated to be a minimum estimate (non-equilibrium assay). As for the experimental part:
FIG. 3. Classical receptor-ligand interaction between C4d and ILT4. a Bw-ILT4 cells or control Bw cells (Bw-mock) were incubated with different concentrations of C4Ad and cell-bound C4Ad was measured by flow cytometry using C4d-mMAb for detection. Data obtained for C4Ad are representative for those using C4Bd, data not shown. Mean and standard deviation of triplicate measurements are shown. b Dissociation constant (Kd) of the C4d-ILT4 interaction assessed via Langmuir binding isotherm equation for single class 1:1 binding equilibrium based on data shown in FIG. 3a.
Flow cytometric analyses were performed via a FACSCalibur flow cytometrer (BD Biosciences, Franklin Lakes, N.J.) using 60,000 cells per sample resuspended in FACS-buffer. In experiments employing monocytes or moDCs, human IgG (Beriglobin P; CSL Behring, Vienna, Austria) was used at 20 mg/mL to block Fcγ receptors. For fluorescence-activated cell sorting (FACS), Bw cells expressing a retroviral cDNA expression library generated from moDC¹⁶ were incubated with biotinylated rh-C4Ad or rh-C4Bd (20m/mL each) in FACS-buffer for 30 minutes on ice followed by two washing steps and subsequent detection of bound biotinylated C4d molecules through incubation with SA-PE. FACS was performed using a FACSDiva (BD Biosciences).

For assay [4], the target named is T3, immunoglobulin-like transcript 4 (ILT4). Briefly: flow cytometry, biotinylated C4d (20 µg/mL) on Bw cells expressing ILT4. The text has this: FIG. 1. Identification of ILT4 as cellular receptor for C4d. a Flow cytometric analyses showing the interaction of biotinylated recombinant human C4d (20m/mL) of both isoforms, rh-C4Ad and rh-C4Bd, with monocytes and monocyte-derived dendritic cells (moDC; grey histograms). Open histograms represent the reactivity of the secondary reagent with these cells. SA-PE: streptavidin-R-PE. b C4d-reactive cells were enriched from a Bw cell pool expressing a cDNA library derived from human moDC by multiple rounds of FACS. Data obtained for rh-C4Bd are representative for those obtained using rh-C4Ad (data not shown). Sorting gates are shown. c Single cell clones derived from the C4d reactive Bw cell pool were probed with rh-C4Ad- and rh-C4Bd. MFI: mean fluorescence intensity. d PCR-amplification of the retroviral inserts of the C4d-b(C4Bd) binding clones 1.5 and 3.7. e Bw cells expressing a 2 kb retroviral insert encoding immunoglobulin-like transcript 4 (ILT4) were probed with biotinylated rh-C4Ad, rh-C4Bd and C4d isolated from human plasma (ih-C4d) each at 20m/mL or ILT4-specific mMAb (grey histograms). Open histograms represent reactivity of C4d molecules and ILT4 mMAb with control Bw-cells. f Monocytes and moDC were analyzed for ILT4 expression (grey histograms, ILT4-mMAb; open histograms, isotype control). […]

Assay [5] concerns the target T1, isolated human C3b (ih-C3b). Nature of the assay: flow cytometry, CSP on transduced Bw cells (FIG. 2a). As for the experimental part:
(§3) FIG. 2. Interaction of ILT4 and ILT5v2 with C4d, C4b, C3d, C3b and iC3b. a Flow cytometric analysis of Bw cells transduced to express ILT2, ILT4 and ILT5-antigenic variants 1 and 2 (ILT5v1 and ILT5v2). Expression of ILT-receptors was verified with specific monoclonal antibodies (left panels, grey histograms; open histograms represent reactivity of ILT MAbs with mock treated Bw cells). Interaction of Bw cells expressing ILT-molecules and mock-treated Bw cells with the indicated CSPs (20 μg/mL each) and with MHC-class I tetramers (further panels, grey histograms). b Interaction of plate-bound CSPs with recombinant human ILT4-Fc fusion protein (rh-ILT4-Fc) or control Fc-fusion protein (rh-ILT3-Fc) was analyzed in an ELISA. c Bw cells transduced to express PIR-B, the murine ortholog of ILT4, were probed with a PIR-B-specific monoclonal antibody or with human CSPs and human MHC-class I tetramers.
(§4) Flow cytometric analyses were performed via a FACSCalibur flow cytometrer (BD Biosciences, Franklin Lakes, N.J.) using 60,000 cells per sample resuspended in FACS-buffer. In experiments employing monocytes or moDCs, human IgG (Beriglobin P; CSL Behring, Vienna, Austria) was used at 20 mg/mL to block Fcγ receptors. […]

Assay [6] concerns the target T2, isolated human iC3b (ih-iC3b). The description is as above. How it is done:
as §3, §4

Numbering of substitutions follows the chain as printed.

B1: ILT7 (receptor, human, UniProt P59901 24-499, looked up)
chain: ENLLKPILWAEPGPVITWHNPVTIWCQGTLEAQGYRLDKEGNSMSRHILKTLESENKVKLSIPSMMWEHAGRYHCYYQSPAGWSEPSDPLELVVTAYSRPTLSALPSPVVTSGVNVTLRCASRLGLGRFTLIEEGDHRLSWTLNSHQHNHGKFQALFPMGPLTFSNRGTFRCYGYENNTPYVWSEPSDPLQLLVSGVSRKPSLLTLQGPVVTPGENLTLQCGSDVGYIRYTLYKEGADGLPQRPGRQPQAGLSQANFTLSPVSRSYGGQYRCYGAHNVSSEWSAPSDPLDILIAGQISDRPSLSVQPGPTVTSGEKVTLLCQSWDPMFTFLLTKEGAAHPPLRLRSMYGAHKYQAEFPMSPVTSAHAGTYRCYGSRSSNPYLLSHPSEPLELVVSGATETLNPAQKKSDSKTAPHLQDYTVENLIRMGVAGLVLLFLGILLFEAQHSQRSPPRCSQEANSRKDNAPFRVVEPWEQI
notes: whole, on cells
As to B1, the binding result in assay [1] and in assay [2] was “no binding” each time.

B2: recombinant human C4d, isoform C4d-A (rh-C4Ad) (ligand)
chain: TLEIPGNSDPNMIPDGDFNSYVRVTASDPLDTLGSEGALSPGGVASLLRLPRGCGEQTMIYLAPTLAASRYLDKTEQWSTLPPETKDHAVDLIQKGYMRIQQFRKADGSYAAWLSRDSSTWLTAFVLKVLSLAQEQVGGSPEKLQETSNWLLSQQQADGSFQDPCPVLDRSMQGGLVGNDETVALTAFVTIALHHGLAVFQDEGAEPLKQRVEASISKANSFLGEKASAGLLGAHAAAITAYALTLTKAPVDLLGVAHNNLMAMAQETGDNLYWGSVTGSQSNAVSPTPAPRNPSDPMPQAPALWIETTAYALLHLLLHEGKAEMADQASAWLTRQGSFQGGFRSTQDTVIALDALSAYWIASHTTEERGLNVTLSSTGR
modifications: biotin on amino groups (Biotin-X-NHS) or, when indicated, on the thioester cysteine C1010 (prepro numbering) via Iodoacetyl-LC-biotin; unlabelled in FIG. 3a and when used as competitor
notes: also called complement split product C4Ad; rh-C4d
As usually defined, the Kd is the concentration at which binding is half-saturated. Consider B2, for which the Kd in assay [3] was 0.63 µM.

B3: recombinant human C4d, isoform C4d-B (rh-C4Bd) (ligand)
chain: B2 chain with D117G, P164L, C165S, L168I, D169H, N220S, V251A, L254R, S330A
modifications: biotin on amino groups (Biotin-X-NHS) or, when indicated, on the thioester cysteine C1010 (prepro numbering) via Iodoacetyl-LC-biotin; unlabelled when used as competitor
notes: also called complement split product C4Bd; rh-C4d
As to B3, the binding result in assay [4] is “binds”.

B4: ILT2 (receptor, human, UniProt Q8NHL6 24-650, looked up)
chain: GHLPKPTLWAEPGSVITQGSPVTLRCQGGQETQEYRLYREKKTALWITRIPQELVKKGQFPIPSITWEHAGRYRCYYGSDTAGRSESSDPLELVVTGAYIKPTLSAQPSPVVNSGGNVILQCDSQVAFDGFSLCKEGEDEHPQCLNSQPHARGSSRAIFSVGPVSPSRRWWYRCYAYDSNSPYEWSLPSDLLELLVLGVSKKPSLSVQPGPIVAPEETLTLQCGSDAGYNRFVLYKDGERDFLQLAGAQPQAGLSQANFTLGPVSRSYGGQYRCYGAHNLSSEWSAPSDPLDILIAGQFYDRVSLSVQPGPTVASGENVTLLCQSQGWMQTFLLTKEGAADDPWRLRSTYQSQKYQAEFPMGPVTSAHAGTYRCYGSQSSKPYLLTHPSDPLELVVSGPSGGPSSPTTGPTSTSGPEDQPLTPTGSDPQSGLGRHLGVVIGILVAVILLLLLLLLLFLILRHRRQGKHWTSTQRKADFQHPAGAVGPEPTDRGLQWRSSPAADAQEENLYAAVKHTQPEDGVEMDTRSPHDEDPQAVTYAEVKHSRPRREMASPPSPLSGEFLDTKDRQAEEDRQMDTEAAASEAPQDVTYAQLHSLTLRREATEPPPSQEGPSPAVPSIYATLAIH
notes: whole, on cells
Regarding B4, the binding result in assay [5] and in assay [6] was “no binding (tested: 20 µg/mL)” in each case.

Source of the values: patent US20150191520A1 (MEDIZINISCHE UNIVERSIT T WIEN, published 2015).
